Paper PMC7831379

Biological target: pre-stabilized HIV-1 CA A14C/E45C/W184A/M185A hexamer (HIV-1)
Experiment: crystal structure

Question: With “pre-stabilized HIV-1 CA A14C/E45C/W184A/M185A hexamer (natural protein)” as the substance, how does the stoichiometry N read?
Answer: 6
